Usually EC50 stands for the concentration needed to bring the measured effect to its halfway point.

First the molecules themselves.
B1: NIgG4B2A1(RS) (Fc fusion)
chain 1: QVQLVESGGGLVQAGGSLRLSCAVFGSTFSNNVADWYRQAPGKQRELVARISASGATREYGDSVKGRFTISRDDAKNTMYLQMNNLKPEDTAVYRCHKIEWEDLSRKDYWGQGTQVTVSRSGPPCPPCPAPEFLGGPSVFLFPPKPKDTLMISRTPEVTCVVVDVSQEDPEVQFNWYVDGVEVHNAKTKPREEQFNSTYRVVSVLTVLHQDWLNGKEYKCKVSNKGLPSSIEKTISKAKGQPREPQVYTLPPCQEEMTKNQVSLWCLVKGFYPSDIAVEWESNGQPENNYKTTPPVLDSDGSFFLYSRLTVDKSRWQEGNVFSCSVMHEALHNHYTQKSLSLSLGK
chain 2: EVQLLESGGGLVQPGGSLRLSCAASGFTFGNYDMAWVRQAPGKRPEWVSSIDTGGDITHYADSVKGRFTISRDNAKNTLYLQMNSLRPEDTAVYWCATDEEYALGPNEFDYYGQGTLVTVSSRSGPPCPPCPAPEFLGGPSVFLFPPKPKDTLMISRTPEVTCVVVDVSQEDPEVQFNWYVDGVEVHNAKTKPREEQFNSTYRVVSVLTVLHQDWLNGKEYKCKVSNKGLPSSIEKTISKAKGQPREPQVCTLPPSQEEMTKNQVSLSCAVKGFYPSDIAVEWESNGQPENNYKTTPPVLDSDGSFFLVSRLTVDKSRWQEGNVFSCSVMHEALHNHYTQKSLSLSLGK
B2: CIgG4B2A1(G4S)2 (Fc fusion)
chain 1: GPPCPPCPAPEFLGGPSVFLFPPKPKDTLMISRTPEVTCVVVDVSQEDPEVQFNWYVDGVEVHNAKTKPREEQFNSTYRVVSVLTVLHQDWLNGKEYKCKVSNKGLPSSIEKTISKAKGQPREPQVYTLPPCQEEMTKNQVSLWCLVKGFYPSDIAVEWESNGQPENNYKTTPPVLDSDGSFFLYSRLTVDKSRWQEGNVFSCSVMHEALHNHYTQKSLSLSLGKGGGGSGGGGSQVQLVESGGGLVQAGGSLRLSCAVFGSTFSNNVADWYRQAPGKQRELVARISASGATREYGDSVKGRFTISRDDAKNTMYLQMNNLKPEDTAVYRCHKIEWEDLSRKDYWGQGTQVTVS
chain 2: GPPCPPCPAPEFLGGPSVFLFPPKPKDTLMISRTPEVTCVVVDVSQEDPEVQFNWYVDGVEVHNAKTKPREEQFNSTYRVVSVLTVLHQDWLNGKEYKCKVSNKGLPSSIEKTISKAKGQPREPQVCTLPPSQEEMTKNQVSLSCAVKGFYPSDIAVEWESNGQPENNYKTTPPVLDSDGSFFLVSRLTVDKSRWQEGNVFSCSVMHEALHNHYTQKSLSLSLGKGGGGSGGGGSEVQLLESGGGLVQPGGSLRLSCAASGFTFGNYDMAWVRQAPGKRPEWVSSIDTGGDITHYADSVKGRFTISRDNAKNTLYLQMNSLRPEDTAVYWCATDEEYALGPNEFDYYGQGTLVTVSS
B3: NIgG4B2A1(G4S)2 (Fc fusion)
chain 1: QVQLVESGGGLVQAGGSLRLSCAVFGSTFSNNVADWYRQAPGKQRELVARISASGATREYGDSVKGRFTISRDDAKNTMYLQMNNLKPEDTAVYRCHKIEWEDLSRKDYWGQGTQVTVSGGGGSGGGGSGPPCPPCPAPEFLGGPSVFLFPPKPKDTLMISRTPEVTCVVVDVSQEDPEVQFNWYVDGVEVHNAKTKPREEQFNSTYRVVSVLTVLHQDWLNGKEYKCKVSNKGLPSSIEKTISKAKGQPREPQVYTLPPCQEEMTKNQVSLWCLVKGFYPSDIAVEWESNGQPENNYKTTPPVLDSDGSFFLYSRLTVDKSRWQEGNVFSCSVMHEALHNHYTQKSLSLSLGK
chain 2: EVQLLESGGGLVQPGGSLRLSCAASGFTFGNYDMAWVRQAPGKRPEWVSSIDTGGDITHYADSVKGRFTISRDNAKNTLYLQMNSLRPEDTAVYWCATDEEYALGPNEFDYYGQGTLVTVSSGGGGSGGGGSGPPCPPCPAPEFLGGPSVFLFPPKPKDTLMISRTPEVTCVVVDVSQEDPEVQFNWYVDGVEVHNAKTKPREEQFNSTYRVVSVLTVLHQDWLNGKEYKCKVSNKGLPSSIEKTISKAKGQPREPQVCTLPPSQEEMTKNQVSLSCAVKGFYPSDIAVEWESNGQPENNYKTTPPVLDSDGSFFLVSRLTVDKSRWQEGNVFSCSVMHEALHNHYTQKSLSLSLGK
B4: NIgG4B2A1(G4S)1 (Fc fusion)
chain 1: QVQLVESGGGLVQAGGSLRLSCAVFGSTFSNNVADWYRQAPGKQRELVARISASGATREYGDSVKGRFTISRDDAKNTMYLQMNNLKPEDTAVYRCHKIEWEDLSRKDYWGQGTQVTVSGGGGSGPPCPPCPAPEFLGGPSVFLFPPKPKDTLMISRTPEVTCVVVDVSQEDPEVQFNWYVDGVEVHNAKTKPREEQFNSTYRVVSVLTVLHQDWLNGKEYKCKVSNKGLPSSIEKTISKAKGQPREPQVYTLPPCQEEMTKNQVSLWCLVKGFYPSDIAVEWESNGQPENNYKTTPPVLDSDGSFFLYSRLTVDKSRWQEGNVFSCSVMHEALHNHYTQKSLSLSLGK
chain 2: EVQLLESGGGLVQPGGSLRLSCAASGFTFGNYDMAWVRQAPGKRPEWVSSIDTGGDITHYADSVKGRFTISRDNAKNTLYLQMNSLRPEDTAVYWCATDEEYALGPNEFDYYGQGTLVTVSSGGGGSGPPCPPCPAPEFLGGPSVFLFPPKPKDTLMISRTPEVTCVVVDVSQEDPEVQFNWYVDGVEVHNAKTKPREEQFNSTYRVVSVLTVLHQDWLNGKEYKCKVSNKGLPSSIEKTISKAKGQPREPQVCTLPPSQEEMTKNQVSLSCAVKGFYPSDIAVEWESNGQPENNYKTTPPVLDSDGSFFLVSRLTVDKSRWQEGNVFSCSVMHEALHNHYTQKSLSLSLGK
B5: CIgG4B2A1(G4S)1 (Fc fusion)
chain 1: GPPCPPCPAPEFLGGPSVFLFPPKPKDTLMISRTPEVTCVVVDVSQEDPEVQFNWYVDGVEVHNAKTKPREEQFNSTYRVVSVLTVLHQDWLNGKEYKCKVSNKGLPSSIEKTISKAKGQPREPQVYTLPPCQEEMTKNQVSLWCLVKGFYPSDIAVEWESNGQPENNYKTTPPVLDSDGSFFLYSRLTVDKSRWQEGNVFSCSVMHEALHNHYTQKSLSLSLGKGGGGSQVQLVESGGGLVQAGGSLRLSCAVFGSTFSNNVADWYRQAPGKQRELVARISASGATREYGDSVKGRFTISRDDAKNTMYLQMNNLKPEDTAVYRCHKIEWEDLSRKDYWGQGTQVTVS
chain 2: GPPCPPCPAPEFLGGPSVFLFPPKPKDTLMISRTPEVTCVVVDVSQEDPEVQFNWYVDGVEVHNAKTKPREEQFNSTYRVVSVLTVLHQDWLNGKEYKCKVSNKGLPSSIEKTISKAKGQPREPQVCTLPPSQEEMTKNQVSLSCAVKGFYPSDIAVEWESNGQPENNYKTTPPVLDSDGSFFLVSRLTVDKSRWQEGNVFSCSVMHEALHNHYTQKSLSLSLGKGGGGSEVQLLESGGGLVQPGGSLRLSCAASGFTFGNYDMAWVRQAPGKRPEWVSSIDTGGDITHYADSVKGRFTISRDNAKNTLYLQMNSLRPEDTAVYWCATDEEYALGPNEFDYYGQGTLVTVSS
B6: CIgG4B2A1(RS) (Fc fusion)
chain 1: GPPCPPCPAPEFLGGPSVFLFPPKPKDTLMISRTPEVTCVVVDVSQEDPEVQFNWYVDGVEVHNAKTKPREEQFNSTYRVVSVLTVLHQDWLNGKEYKCKVSNKGLPSSIEKTISKAKGQPREPQVYTLPPCQEEMTKNQVSLWCLVKGFYPSDIAVEWESNGQPENNYKTTPPVLDSDGSFFLYSRLTVDKSRWQEGNVFSCSVMHEALHNHYTQKSLSLSLGKRSQVQLVESGGGLVQAGGSLRLSCAVFGSTFSNNVADWYRQAPGKQRELVARISASGATREYGDSVKGRFTISRDDAKNTMYLQMNNLKPEDTAVYRCHKIEWEDLSRKDYWGQGTQVTVS
chain 2: GPPCPPCPAPEFLGGPSVFLFPPKPKDTLMISRTPEVTCVVVDVSQEDPEVQFNWYVDGVEVHNAKTKPREEQFNSTYRVVSVLTVLHQDWLNGKEYKCKVSNKGLPSSIEKTISKAKGQPREPQVCTLPPSQEEMTKNQVSLSCAVKGFYPSDIAVEWESNGQPENNYKTTPPVLDSDGSFFLVSRLTVDKSRWQEGNVFSCSVMHEALHNHYTQKSLSLSLGKRSEVQLLESGGGLVQPGGSLRLSCAASGFTFGNYDMAWVRQAPGKRPEWVSSIDTGGDITHYADSVKGRFTISRDNAKNTLYLQMNSLRPEDTAVYWCATDEEYALGPNEFDYYGQGTLVTVSS
B7: CIgG4B1A2(G4S)3 (Fc fusion)
chain 1: GPPCPPCPAPEFLGGPSVFLFPPKPKDTLMISRTPEVTCVVVDVSQEDPEVQFNWYVDGVEVHNAKTKPREEQFNSTYRVVSVLTVLHQDWLNGKEYKCKVSNKGLPSSIEKTISKAKGQPREPQVYTLPPCQEEMTKNQVSLWCLVKGFYPSDIAVEWESNGQPENNYKTTPPVLDSDGSFFLYSRLTVDKSRWQEGNVFSCSVMHEALHNHYTQKSLSLSLGKGGGGSGGGGSGGGGSQVQLQESGGGLVQTGGSLRLSCAVHGRTFSNTGMGWFRQAPGNERQFVAIISPSGTSTYYADSVKGRFTISRDPAKNTVYLQMNSLKMDDTAVYYCAASYGSNWSTLRHQRRNEYDAWGQGTQVAVS
chain 2: GPPCPPCPAPEFLGGPSVFLFPPKPKDTLMISRTPEVTCVVVDVSQEDPEVQFNWYVDGVEVHNAKTKPREEQFNSTYRVVSVLTVLHQDWLNGKEYKCKVSNKGLPSSIEKTISKAKGQPREPQVCTLPPSQEEMTKNQVSLSCAVKGFYPSDIAVEWESNGQPENNYKTTPPVLDSDGSFFLVSRLTVDKSRWQEGNVFSCSVMHEALHNHYTQKSLSLSLGKGGGGSGGGGSGGGGSEVQLLESGGGLVQPGGSLRLSCAASGFRFGNYDMAWVRQAPGKRYEWVSSIDTGGDITHYADSVKGRFTISRDNAKNTLYLQMNSLRPEDTAEYWCATDEEYALGPNEFDYYGQGTLVTVS
B8: NIgG4B2A1(G4S)3 (Fc fusion)
chain 1: QVQLVESGGGLVQAGGSLRLSCAVFGSTFSNNVADWYRQAPGKQRELVARISASGATREYGDSVKGRFTISRDDAKNTMYLQMNNLKPEDTAVYRCHKIEWEDLSRKDYWGQGTQVTVSGGGGSGGGGSGGGGSGPPCPPCPAPEFLGGPSVFLFPPKPKDTLMISRTPEVTCVVVDVSQEDPEVQFNWYVDGVEVHNAKTKPREEQFNSTYRVVSVLTVLHQDWLNGKEYKCKVSNKGLPSSIEKTISKAKGQPREPQVYTLPPCQEEMTKNQVSLWCLVKGFYPSDIAVEWESNGQPENNYKTTPPVLDSDGSFFLYSRLTVDKSRWQEGNVFSCSVMHEALHNHYTQKSLSLSLGK
chain 2: EVQLLESGGGLVQPGGSLRLSCAASGFTFGNYDMAWVRQAPGKRPEWVSSIDTGGDITHYADSVKGRFTISRDNAKNTLYLQMNSLRPEDTAVYWCATDEEYALGPNEFDYYGQGTLVTVSSGGGGSGGGGSGGGGSGPPCPPCPAPEFLGGPSVFLFPPKPKDTLMISRTPEVTCVVVDVSQEDPEVQFNWYVDGVEVHNAKTKPREEQFNSTYRVVSVLTVLHQDWLNGKEYKCKVSNKGLPSSIEKTISKAKGQPREPQVCTLPPSQEEMTKNQVSLSCAVKGFYPSDIAVEWESNGQPENNYKTTPPVLDSDGSFFLVSRLTVDKSRWQEGNVFSCSVMHEALHNHYTQKSLSLSLGK

For this test, the target named is mixture of three Der p 2 specific recombinant human IgE clones H10, H12, P4E (human) (UniProt P01854). Put plainly: RBL-SX38 IgE displacement, FACS.
Sequence of mixture of three Der p 2 specific recombinant human IgE clones H10, H12, P4E (human) (P01854 other isoform, or with tags, fused parts or gaps): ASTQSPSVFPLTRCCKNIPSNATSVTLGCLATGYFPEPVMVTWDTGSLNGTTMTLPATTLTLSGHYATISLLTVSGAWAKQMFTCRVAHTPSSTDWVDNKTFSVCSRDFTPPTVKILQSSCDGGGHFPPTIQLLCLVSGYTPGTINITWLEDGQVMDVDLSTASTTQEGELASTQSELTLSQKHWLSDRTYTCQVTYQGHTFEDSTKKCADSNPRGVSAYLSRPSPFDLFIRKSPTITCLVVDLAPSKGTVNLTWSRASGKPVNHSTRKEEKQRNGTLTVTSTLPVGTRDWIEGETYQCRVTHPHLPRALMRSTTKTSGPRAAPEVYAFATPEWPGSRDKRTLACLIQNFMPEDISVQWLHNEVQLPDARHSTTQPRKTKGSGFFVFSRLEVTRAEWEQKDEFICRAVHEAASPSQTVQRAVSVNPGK
As for B1, the EC50 came out at 0.4 nM and the Max effect/effect 1 µM amounted to 99%.

Consider B2, for which the concentration for a half-maximal effect (EC50) amounted to 1.6 nM and the Max effect/effect 1 µM came to 99%.

In the case of B3, the EC50 came out at 0.3 nM and the Max effect/effect 1 µM was determined as 98%.

On to B4, for which the EC50 turned out to be 0.3 nM and the Max effect/effect 1 µM was 97%.

B5: the EC50 was 8.8 nM and the Max effect/effect 1 µM is 93%.

For B6, the EC50 worked out at 273 nM and the Max effect/effect 1 µM is 70%.

Consider B7, for which the EC50 worked out at 5.3 nM and the Max effect/effect 1 µM amounted to 100%.

Take B8: the EC50 was found to be 0.5 nM and the Max effect/effect 1 µM is 98%.

Values taken from patent US20250171562A1.
